Test results published in patent US20110313018.

T1: His-tagged full-length recombinant LGN/GPSM2 (pET28a-LGN/GPSM2, E. coli)
T1 chain: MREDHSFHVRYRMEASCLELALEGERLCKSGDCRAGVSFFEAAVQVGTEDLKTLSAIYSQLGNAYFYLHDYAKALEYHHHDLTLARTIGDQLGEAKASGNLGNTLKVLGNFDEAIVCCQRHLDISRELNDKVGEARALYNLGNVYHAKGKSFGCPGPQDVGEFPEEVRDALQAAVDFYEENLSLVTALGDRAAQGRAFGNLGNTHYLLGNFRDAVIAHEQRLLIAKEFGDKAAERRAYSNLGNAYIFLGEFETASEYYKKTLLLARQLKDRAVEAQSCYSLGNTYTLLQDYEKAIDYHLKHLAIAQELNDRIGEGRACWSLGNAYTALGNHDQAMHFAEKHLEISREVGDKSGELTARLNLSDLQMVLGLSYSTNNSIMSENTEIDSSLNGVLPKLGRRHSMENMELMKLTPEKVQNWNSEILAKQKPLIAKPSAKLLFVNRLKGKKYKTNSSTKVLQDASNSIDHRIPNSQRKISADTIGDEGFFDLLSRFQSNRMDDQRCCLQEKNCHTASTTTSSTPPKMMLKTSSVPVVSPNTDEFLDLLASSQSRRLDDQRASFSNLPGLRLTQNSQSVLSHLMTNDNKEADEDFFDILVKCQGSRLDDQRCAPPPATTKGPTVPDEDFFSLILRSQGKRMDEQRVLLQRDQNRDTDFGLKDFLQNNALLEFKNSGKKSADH

T2: GST-LGN/GPSM2 wild type, full-length recombinant (pGEX 6P-2-LGN/GPSM2, E. coli)
T2 chain: T1 chain

B1: recombinant full-length PBK/TOPK (Invitrogen) (protein)
chain: MEGISNFKTPSKLSEKKKSVLCSTPTINIPASPIMQKLGFGTGVNVYLMKRSPRGLSHSPWAVKKINPICNDHYRSVYQKRLMDEAKILKSLHHPNIVGYRAFTEASDGSLCLAMEYGGEKSLNDLIEERYKASQDPFPAAIILKVALNMARGLKYLHQEKKLLHGDIKSSNVVIKGDFETIKICDVGVSLPLDENMTVTDPEACYIGTEPWKPKEAVEENGVITDKADIFAFGLTLWEMMTLSIPHINLSNDDDDEDKTFDESDFDDEAYYAALGTRPPINMEELDESYQKVIELFSVCTNEDPKDRPSAAHIVEALETDV
B2: recombinant Aurora kinase B (SignalChem) (protein)
chain: MAQKENSYPWPYGRQTAPSGLSTLPQRVLRKEPVTPSALVLMSRSNVQPTAAPGQKVMENSSGTPDILTRHFTIDDFEIGRPLGKGKFGNVYLAREKKSHFIVALKVLFKSQIEKEGVEHQLRREIEIQAHLHHPNILRLYNYFYDRRRIYLILEYAPRGELYKELQKSCTFDEQRTATIMEELADALMYCHGKKVIHRDIKPENLLLGLKGELKIADFGWSVHAPSLRRKTMCGTLDYLPPEMIEGRMHNEKVDLWCIGVLCYELLVGNPPFESASHNETYRRIVKVDLKFPASVPMGAQDLISKLLRHNPSERLPLAQVSAHPWVRANSRRVLPPSALQSVA
B3: recombinant Aurora kinase A (SignalChem) (protein)
chain: MDRSKENCISGPVKATAPVGGPKRVLVTQQFPCQNPLPVNSGQAQRVLCPSNSSQRIPLQAQKLVSSHKPVQNQKQKQLQATSVPHPVSRPLNNTQKSKQPLPSAPENNPEEELASKQKNEESKKRQWALEDFEIGRPLGKGKFGNVYLAREKQSKFILALKVLFKAQLEKAGVEHQLRREVEIQSHLRHPNILRLYGYFHDATRVYLILEYAPLGTVYRELQKLSKFDEQRTATYITELANALSYCHSKRVIHRDIKPENLLLGSAGELKIADFGWSVHAPSSRRTTLCGTLDYLPPEMIEGRMHDEKVDLWSLGVLCYEFLVGKPPFEANTYQETYKRISRVEFTFPDFVTEGARDLISRLLKHNPSQRPMLREVLEHPWITANSSKPSNCQNKESASKQS

Columns and labels:
[1] = target: T1, His-tagged full-length recombinant …
[2] = target: T2, GST-LGN/GPSM2 wild type, full-length …
[3] = target: GST-LGN/GPSM2 S401A

Row | Protein | in vitro kinase assay (western blot with anti-phosphorylated threonine antibody) [1] | in vitro kinase assay (autoradiography, [gamma-32P]-ATP) [2] | in vitro kinase assay with GST-LGN/GPSM2 WT and alanine substitutes (autoradiography) [2] | in vitro kinase assay (autoradiography, [gamma-32P]-ATP) [3]
1 | B1 | found phosphorylation of the LGN/GPSM2 protein by PBK/TOPK in vitro (FIG. 8B) | The autoradiography images also showed phosphorylation of the LGN/GPSM2 protein by PBK/TOPK (FIG. 8C) | PBK/TOPK, which was has been shown to phosphorylate LGN/GPSM2 in FIG. 8, did not phosphorylate these amino acids identified here (FIG. 10C) | 
2 | B2 |  | the phosphorylation of GST-LGN/GPSM2 by both Aurora kinase A and B |  | Substitution of serine 401 to alanine distinguished the phosphorylation of GST-LGN/GPSM2 by both Aurora kinase A and B
3 | B3 |  | the phosphorylation of GST-LGN/GPSM2 by both Aurora kinase A and B |  | Substitution of serine 401 to alanine distinguished the phosphorylation of GST-LGN/GPSM2 by both Aurora kinase A and B
